These are literature values, as cited in PMC2659627 (Bioconjugate chemistry, 2008).

In one series the test system is PC-3 cells. To be noted: after 90 min incubation with PC-3 cells.
The target of the next series is GRP-receptors. To be noted: read-out: IC50 (binding affinity to GRP-receptors); human PC-3 cell line.

pIC50: −log10 of the molar value. DPr = 2,3-diaminopropanoyl

Turning to “(DPr)-Ser-Ser-Ser-Gln-Trp-AlaVal-Gly-His-Leu-Met-(NH2) (DPr-SSSQWAVGHLM-NH2; also: Tc/Re tricarbonyl complex on DPr chelator)”, the “Uptake in normal pancreas” value was 16 ± 1.3 ID/g. Besides, the Internalization with PC-3 cells is listed as 80%. For the same substance, the pIC50 on GRP-receptors is approximately 9.07.

Take “DTPA-ACMpip-Tha^6-BAla^11-Tha^13-Nle^14-BBN[6-14]”: the “Uptake compared to DTPA-BBN[1-14]” value is “two to three times higher” in the series on CA20948 pancreas tumor and 1.3 times in the series with PC-3 prostate tumors.
